T1: FcγRIIa H extracellular domain with C-terminal His tag (human, UniProt P12318 34-217)
T1 construct: extracellular domain; Soluble receptor, H131 allotype; also called FcgRIIa H; FcgRIIaH; not shown: His tag at the C terminus
T1 sequence (looked up): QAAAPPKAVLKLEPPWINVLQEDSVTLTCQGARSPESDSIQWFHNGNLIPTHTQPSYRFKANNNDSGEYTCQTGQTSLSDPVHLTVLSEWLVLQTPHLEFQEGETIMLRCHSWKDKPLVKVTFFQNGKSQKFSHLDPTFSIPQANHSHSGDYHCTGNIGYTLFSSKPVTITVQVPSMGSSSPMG

T2: FcγRIIa R extracellular domain with C-terminal His tag (human, UniProt P12318 34-217)
T2 construct: extracellular domain; Soluble receptor, R131 allotype; also called FcgRIIa R; FcgRIIaR; not shown: His tag at the C terminus
T2 sequence (looked up): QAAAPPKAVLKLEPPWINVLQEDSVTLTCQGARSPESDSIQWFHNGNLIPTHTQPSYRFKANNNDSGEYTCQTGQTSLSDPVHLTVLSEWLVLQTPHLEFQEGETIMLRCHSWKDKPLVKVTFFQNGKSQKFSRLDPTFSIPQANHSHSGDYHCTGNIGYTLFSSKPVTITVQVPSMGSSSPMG

T3: FcgRIIaR (human, UniProt P12318 34-217)
T3 construct: extracellular domain; also called FcγRIIa R; FcγRIIa type R; not shown: His tag at the C terminus
T3 sequence (looked up): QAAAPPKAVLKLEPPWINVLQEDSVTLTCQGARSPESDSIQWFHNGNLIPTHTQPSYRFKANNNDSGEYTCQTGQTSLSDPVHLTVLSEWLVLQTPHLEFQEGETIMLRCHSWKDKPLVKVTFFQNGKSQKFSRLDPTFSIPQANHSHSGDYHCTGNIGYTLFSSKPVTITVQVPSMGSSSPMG

T4: FcgRIIaH (human, UniProt P12318 34-217)
T4 construct: extracellular domain; also called FcγRIIa H; FcγRIIa type H; not shown: His tag at the C terminus
T4 sequence (looked up): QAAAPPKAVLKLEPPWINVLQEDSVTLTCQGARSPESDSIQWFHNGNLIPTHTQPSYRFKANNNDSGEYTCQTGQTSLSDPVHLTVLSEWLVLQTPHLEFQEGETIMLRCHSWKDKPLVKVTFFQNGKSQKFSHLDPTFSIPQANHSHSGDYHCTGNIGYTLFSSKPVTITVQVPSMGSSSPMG

T5: FcgRIIb (human, UniProt P31994 43-217)
T5 construct: extracellular domain; also called FcγRIIb; 2b; not shown: His tag at the C terminus
T5 sequence (looked up): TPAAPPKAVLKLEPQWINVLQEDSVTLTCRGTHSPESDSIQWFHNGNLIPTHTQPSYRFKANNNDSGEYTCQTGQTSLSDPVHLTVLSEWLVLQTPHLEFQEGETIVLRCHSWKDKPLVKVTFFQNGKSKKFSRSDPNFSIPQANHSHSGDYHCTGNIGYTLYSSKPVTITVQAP


Assays:
[1] = molecular target: T1, FcγRIIa H extracellular domain with …; test: SPR (Biacore); ratio KD for FcγRIIb / KD for FcγRIIa H
Description: (§1) These antibodies were assessed for the binding activity to each FcγR according to the method described in Reference Example 2.
(§2) Analysis of interaction between objective antibody and the FcγR was carried out using Biacore T100 (GE Healthcare). HBS-EP+ (GE Healthcare) was used as the running buffer, and the measurement temperature was set to 25° C. Chips produced by immobilizing the antigen peptide by the amine coupling method to a Series S Sencor Chip CM5 (GE Healthcare), or alternatively, chips produced by allowing preliminarily biotinylated antigen peptides to interact with and immobilize onto a Series S Sensor Chip SA (certified) (GE Healthcare) were used. Antibodies of interest were captured onto an antigen peptide-immobilized chip, and allowed to interact to each FcγR diluted with running buffer. To regenerate and repeatedly use the chip, the antibodies captured on the chip were washed off by reacting 10 mM glycine-HCl, pH 1.5.

[2] = molecular target: T2, FcγRIIa R extracellular domain with …; test: SPR (Biacore); ratio KD for FcγRIIb / KD for FcγRIIa R
Description: as §1, §2

FcgRIa = molecular target: T6, FcgRIa (human, UniProt P12314 16-292); test: SPR (Biacore), antibody captured, FcgR extracellular domain as analyte
T6 construct: extracellular domain; also called FcγRIa; FcγRI; not shown: His tag at the C terminus
Description: (§3) Next, the amino acid at position 330 was examined. The A330M alteration has been introduced into H240-Hl076 of H240-Kn125/H240-Hl076/L73-k0. […] L73-k0 was used as the common antibody L chain. Binding of the produced variants to FcgRIa, FcgRIIaR, FcgRIIaH, FcgRIIb, FcgRIIIaF, and FcgRIIIaV was measured according to the method of Reference Example 8.
(§4) Analysis of interaction between objective antibody and the FcγR was carried out using Biacore T100 (GE Healthcare), Biacore T200, Biacore A100, and Biacore 4000. HBS-EP+ (GE Healthcare) was used as the running buffer, and the measurement temperature was set to 25° C. Chips produced by immobilizing the antigen peptide by the amine coupling method to a Series S sensor Chip CM5 (GE Healthcare), chips produced by allowing preliminarily biotinylated antigen peptides to interact with and immobilize onto a Series S Sensor Chip SA (certified) (GE Healthcare), chips produced by immobilizing Protein L (ACTIGEN, BioVision) to Series S Sencor Chip CM5 (GE Healthcare), or chips produced by immobilizing Protein A/G (Thermo Scientific) to Series S Sencor Chip CM5 (GE Healthcare) were used. Antibodies of interest were captured onto these chips, and allowed to interact to each FcγR diluted with running buffer. To regenerate and repeatedly use the chip, the antibodies captured onto the chip were washed off by reacting 10 mM glycine-HCl, pH 1.5.

FcgRIIaR [3] = molecular target: T3, FcgRIIaR; test: as above
Description: as §3, §4

FcgRIIaH [4] = molecular target: T4, FcgRIIaH; test: as above
Description: as §3, §4

FcgRIIb [5] = molecular target: T5, FcgRIIb; test: as above
Description: as §3, §4

FcgRIIIaF [6] = molecular target: T7, FcgRIIIaF (human, UniProt P08637 17-208); test: as above
T7 construct: extracellular domain; Polymorphic site after J. Clin. Invest; also called FcγRIIIa F; 3aF; not shown: His tag at the C terminus
Description: as §3, §4

FcgRIIIaV [7] = molecular target: T8, FcgRIIIaV (human, UniProt P08637 17-208); test: as above
T8 construct: extracellular domain; Polymorphic site after J. Clin. Invest; also called FcγRIIIa V; 3aV; not shown: His tag at the C terminus
Description: as §3, §4

FcgRIIaR [8] = molecular target: T3, FcgRIIaR; test: SPR (Biacore); KD of H240-Kn033/H240-Hl033/L73-k0 divided by KD of the variant
FcgRIIaH [9] = molecular target: T4, FcgRIIaH; test: as above
FcgRIIb [10] = molecular target: T5, FcgRIIb; test: as above
FcgRIIIaF [11] = molecular target: T7, FcgRIIIaF; test: as above
FcgRIIIaV [12] = molecular target: T8, FcgRIIIaV; test: as above

T8 sequence (P08637 17-208 F176V limits assumed): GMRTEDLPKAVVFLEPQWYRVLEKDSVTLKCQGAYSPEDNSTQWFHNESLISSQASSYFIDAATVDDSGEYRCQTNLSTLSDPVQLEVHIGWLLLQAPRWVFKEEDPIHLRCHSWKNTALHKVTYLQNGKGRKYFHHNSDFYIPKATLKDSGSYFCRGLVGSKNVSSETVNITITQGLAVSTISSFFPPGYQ
T7 sequence (P08637 17-208): as the sequence (P08637 17-208 F176V limits assumed) above, with V160F counted along it
T6 sequence (P12314 16-292): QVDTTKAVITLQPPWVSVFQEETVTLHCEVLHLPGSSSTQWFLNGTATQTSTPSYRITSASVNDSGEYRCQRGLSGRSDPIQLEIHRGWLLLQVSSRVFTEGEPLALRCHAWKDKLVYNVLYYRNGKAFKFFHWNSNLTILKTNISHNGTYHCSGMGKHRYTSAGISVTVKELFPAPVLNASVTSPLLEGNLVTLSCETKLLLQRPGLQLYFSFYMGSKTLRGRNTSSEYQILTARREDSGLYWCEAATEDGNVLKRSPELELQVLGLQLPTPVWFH

A/I ratio [1] | A/I ratio [2] | Kd (FcgRIa) [nM] | Kd (FcgRIIaR [3]) [nM] | Kd (FcgRIIaH [4]) [nM] | Kd (FcgRIIb [5]) [nM] | Kd (FcgRIIIaF [6]) [nM] | Kd (FcgRIIIaV [7]) [nM] | fold 2aR (FcgRIIaR [8]) [fold] | fold 2aH (FcgRIIaH [9]) [fold] | fold 2b (FcgRIIb [10]) [fold] | fold 3aF (FcgRIIIaF [11]) [fold] | fold 3aV (FcgRIIIaV [12]) [fold] | Binder
8.7 | 16 |  |  |  |  |  |  |  |  |  |  |  | GpH7-Kn056/GpH7-Hl055/GpL16-k0 (antibody, human IgG1, kappa, Heterodimerized anti-glypican-3 IgG1, knobs-into-holes; also called Kn056/Hl055) heavy 1: QVQLVQSGAEVKKPGASVTVSCKASGYTFTDYEMHWIRQPPGEGLEWIGAIDPKTGDTAYSESFQDRVTLTADKSTSTAYMELSSLTSEDTAVYYCTRFYSYTYWGQGTLVTVSSASTKGPSVFPLAPSSKSTSGGTAALGCLVKDYFPEPVTVSWNSGALTSGVHTFPAVLQSSGLYSLSSVVTVPSSSLGTQTYICNVNHKPSNTKVDKKVEPKSCDKTHTCPPCPAPEYYAGPSVFLFPPKPKDTLMISRTPEVTCVVVDVSDEDPEVKFNWYVDGVEVHNAKTKPREELYNATYRVVSVLTVLHQDWLNGKEYKCKVSNKALPAPIEKTISKAKGQPREPQVCTLPPSRDELTKNQVSLWCLVKGFYPSDIAVEWESNGQPENNYKTTPPVLDSDGSFFLYSKLTVDKSRWQQGNVFSCSVMHEALHNHYTQKSLSLSP heavy 2: QVQLVQSGAEVKKPGASVTVSCKASGYTFTDYEMHWIRQPPGEGLEWIGAIDPKTGDTAYSESFQDRVTLTADKSTSTAYMELSSLTSEDTAVYYCTRFYSYTYWGQGTLVTVSSASTKGPSVFPLAPSSKSTSGGTAALGCLVKDYFPEPVTVSWNSGALTSGVHTFPAVLQSSGLYSLSSVVTVPSSSLGTQTYICNVNHKPSNTKVDKKVEPKSCDKTHTCPPCPAPELLAGPDVFLFPPKPKDTLMISRTPEVTCVVVDVSHEDPEVKFNWYVDGVEVHNAKTKPREELYNSTYRVVSVLTVLHQDWLNGKEYKCKVSNKALPMPEEKTISKAKGQPREPQVYTLPPSRCELTKNQVSLSCAVKGFYPSDIAVEWESNGQPENNYKTTPPVLDSDGSFFLVSKLTVDKSRWQQGNVFSCSVMHEALHNHYTQKSLSLSP light: DIVMTQSPLSLPVTPGEPASISCQASESLVHSNRNTYLHWYLQKPGQSPQLLIYKVSNRFSGVPDRFSGSGSGTDFTLKISRVEAEDVGVYYCSQNTHVPPTFGQGTKVEIERTVAAPSVFIFPPSDEQLKSGTASVVCLLNNFYPREAKVQWKVDNALQSGNSQESVTEQDSKDSTYSLSSTLTLSKADYEKHKVYACEVTHQGLSSPVTKSFNRGEC
 |  | 0.066 | 420 | 140 | 3900 | 1.3 | 0.26 | 1.8 | 3.7 | 0.8 | 223 | 185 | H240-Kn125/H240-Hl076/L73-k0 (antibody, human IgG1, kappa, Template of the position 330 series) heavy 1: QDQLVQSGAEVKKPGASVKVSCKASGFNIKDTYIQWVRQAPGQGLEWMGRIDPLRKQTKYREKFEGRVTITADTSTNTAYMELSSLRSEDTAVYYCVRSGREFDYWGQGTLVTVSSASTKGPSVFPLAPSSKSTSGGTAALGCLVKDYFPEPVTVSWNSGALTSGVHTFPAVLQSSGLYSLSSVVTVPSSSLGTQTYICNVNHKPSNTKVDKKVEPKSCDKTHTCPPCPAPEYQWGPMVFLFPPKPKDTLMISRTPEVTCVVVDVSDEEPEVKFNWYVDGVEVHNAKTKPREEQYNATYRVVSVLTVLHQDWLNGKEYKCKVSNKALPAPIEKTISKAKGQPREPQVCTLPPSRDELTKNQVSLWCLVKGFYPSDIAVEWESNGQPENNYKTTPPVLDSDGSFFLYSKLTVDKSRWQQGNVFSCSVMHEALHNHYTQKSLSLSP heavy 2: QDQLVQSGAEVKKPGASVKVSCKASGFNIKDTYIQWVRQAPGQGLEWMGRIDPLRKQTKYREKFEGRVTITADTSTNTAYMELSSLRSEDTAVYYCVRSGREFDYWGQGTLVTVSSASTKGPSVFPLAPSSKSTSGGTAALGCLVKDYFPEPVTVSWNSGALTSGVHTFPAVLQSSGLYSLSSVVTVPSSSLGTQTYICNVNHKPSNTKVDKKVEPKSCDKTHTCPPCPAPELLGGPSVFLFPPKPKDTLMISRTPEVTCVVVDVSHEEPEVKFNWYVDGVEVHNAKTKPREEQYNSTYRVVSVLTVLHQDWLNGKEYKCKVSNDALPMPIEETISKAKGQPREPQVYTLPPSRCELTKNQVSLSCAVKGFYPSDIAVEWESNGQPENNYKTTPPVLDSDGSFFLVSKLTVDKSRWQQGNVFSCSVMHEALHNHYTQKSLSLSP light: DIQMTQSPSSLSASVGDRVTITCRASQDIHKYIAWYQQKPGQAPRLLIQYTSTLQPGVPSRFSGSGSGTDYTFTISSLQPEDIATYYCLQYEQLRTFGGGTKVEIKRTVAAPSVFIFPPSDEQLKSGTASVVCLLNNFYPREAKVQWKVDNALQSGNSQESVTEQDSKDSTYSLSSTLTLSKADYEKHKVYACEVTHQGLSSPVTKSFNRGEC

Reference: patent publication US20150344570A1 (published 2015)
